Results published in paper PMC9174126.

Biological target: collagen I coupled to the Biacore CM5 chip (UniProt P02452)
Assay: SPR; Biacore; SPARC-WT and SPARC-Fut8KO on collagen I; responses compared at 300 s; sensorgrams shown in Fig. 2C of Ref. [20]

Sequence of UniProt P02452 (P02452 23-1218, chain 1 of 2): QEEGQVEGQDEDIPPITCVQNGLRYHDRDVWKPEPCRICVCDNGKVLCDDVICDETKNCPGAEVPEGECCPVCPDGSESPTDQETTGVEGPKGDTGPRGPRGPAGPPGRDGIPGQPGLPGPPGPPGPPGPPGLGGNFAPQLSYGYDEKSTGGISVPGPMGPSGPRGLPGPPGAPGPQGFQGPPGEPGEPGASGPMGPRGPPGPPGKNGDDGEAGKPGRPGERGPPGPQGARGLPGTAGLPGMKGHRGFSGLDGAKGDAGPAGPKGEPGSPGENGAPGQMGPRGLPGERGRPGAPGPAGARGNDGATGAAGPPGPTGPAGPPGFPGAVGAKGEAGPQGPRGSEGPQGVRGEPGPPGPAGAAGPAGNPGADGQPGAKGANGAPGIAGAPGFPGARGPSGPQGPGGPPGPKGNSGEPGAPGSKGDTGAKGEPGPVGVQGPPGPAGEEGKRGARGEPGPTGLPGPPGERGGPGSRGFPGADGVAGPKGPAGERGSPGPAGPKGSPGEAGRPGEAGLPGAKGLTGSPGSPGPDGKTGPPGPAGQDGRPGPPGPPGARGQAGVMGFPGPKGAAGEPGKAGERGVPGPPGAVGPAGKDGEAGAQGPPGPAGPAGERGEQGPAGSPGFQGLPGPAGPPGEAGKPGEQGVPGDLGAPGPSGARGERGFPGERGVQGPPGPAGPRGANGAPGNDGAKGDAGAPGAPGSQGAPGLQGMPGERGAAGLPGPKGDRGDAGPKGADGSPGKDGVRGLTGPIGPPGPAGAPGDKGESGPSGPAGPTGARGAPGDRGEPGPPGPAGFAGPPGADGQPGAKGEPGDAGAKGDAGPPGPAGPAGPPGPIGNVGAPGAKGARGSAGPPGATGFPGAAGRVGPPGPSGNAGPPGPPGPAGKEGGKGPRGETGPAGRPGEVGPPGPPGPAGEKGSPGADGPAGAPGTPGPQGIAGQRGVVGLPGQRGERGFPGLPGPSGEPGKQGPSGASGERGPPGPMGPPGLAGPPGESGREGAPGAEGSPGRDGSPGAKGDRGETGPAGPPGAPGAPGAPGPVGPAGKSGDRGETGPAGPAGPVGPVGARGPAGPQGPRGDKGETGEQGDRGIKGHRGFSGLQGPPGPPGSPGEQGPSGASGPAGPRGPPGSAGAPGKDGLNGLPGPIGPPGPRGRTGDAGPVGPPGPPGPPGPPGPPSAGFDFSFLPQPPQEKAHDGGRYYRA
Sequence of UniProt P02452 (P08123 80-1119, chain 2 of 2, further chain): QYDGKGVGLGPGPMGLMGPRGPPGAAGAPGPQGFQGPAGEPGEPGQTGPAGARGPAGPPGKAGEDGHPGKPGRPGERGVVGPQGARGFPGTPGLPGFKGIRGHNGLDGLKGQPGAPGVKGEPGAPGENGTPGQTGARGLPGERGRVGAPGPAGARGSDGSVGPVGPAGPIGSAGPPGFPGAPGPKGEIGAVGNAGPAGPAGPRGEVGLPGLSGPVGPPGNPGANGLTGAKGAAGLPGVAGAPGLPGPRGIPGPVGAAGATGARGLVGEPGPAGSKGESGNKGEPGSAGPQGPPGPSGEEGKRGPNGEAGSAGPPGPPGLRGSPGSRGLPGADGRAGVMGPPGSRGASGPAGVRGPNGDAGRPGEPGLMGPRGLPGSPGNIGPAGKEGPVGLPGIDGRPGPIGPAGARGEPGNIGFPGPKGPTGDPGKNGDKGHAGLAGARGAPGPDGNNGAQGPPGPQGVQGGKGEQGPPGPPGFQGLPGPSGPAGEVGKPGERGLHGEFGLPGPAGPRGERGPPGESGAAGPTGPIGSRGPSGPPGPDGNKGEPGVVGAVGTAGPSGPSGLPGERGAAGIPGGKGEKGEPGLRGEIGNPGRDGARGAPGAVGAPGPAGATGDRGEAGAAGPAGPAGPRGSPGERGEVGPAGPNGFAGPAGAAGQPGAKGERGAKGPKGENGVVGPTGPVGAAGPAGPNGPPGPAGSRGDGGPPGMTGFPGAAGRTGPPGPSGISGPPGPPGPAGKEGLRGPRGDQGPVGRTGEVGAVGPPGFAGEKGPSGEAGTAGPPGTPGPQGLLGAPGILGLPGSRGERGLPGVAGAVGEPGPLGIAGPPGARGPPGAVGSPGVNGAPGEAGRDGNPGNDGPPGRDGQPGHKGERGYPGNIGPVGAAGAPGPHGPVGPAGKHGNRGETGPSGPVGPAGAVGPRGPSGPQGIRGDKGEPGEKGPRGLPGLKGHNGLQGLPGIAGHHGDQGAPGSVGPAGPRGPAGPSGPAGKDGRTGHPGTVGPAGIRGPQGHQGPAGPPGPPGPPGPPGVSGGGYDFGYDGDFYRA

binding response (RU) relative to SPARC-WT at 300 s: 40%
B1: recombinant His-tagged human SPARC from FUT8-knockout HEK-293T cells (SPARC-Fut8KO), not core-fucosylated (natural protein)
chain: APQQEALPDETEVVEETVAEVTEVSVGANPVQVEVGEFDDGAEETEEEVVAENPCQNHHCKHGKVCELDENNTPMCVCQDPTSCPAPIGEFEKVCSNDNKTFDSSCHFFATKCTLEGTKKGHKLHLDYIGPCKYIPPCLDSELTEFPLRMRDWLKNVLVTLYERDEDNNLLTEKQKLRVKKIHENEKRLEAGDHPVELLARDFEKNYNMYIFPVHWQFGQLDQHPIDGYLSHTELAPLRAPLIPMEHCTTRFFETCDLDNDKYIALDEWAGCFGIKQKDIDKDLVI
modifications: not core-fucosylated at N116
